B1: Guanyl-specific ribonuclease T1, P00651 (parent)
chain: MMYSKLLTLTTLLLPTALALPSLVERACDYTCGSNCYSSSDVSTAQAAGYQLHEDGETVGSNSYPHKYNNYEGFDFSVSSPYYEWPILSSGDVYSGGSPGADRVVFNENNQLAGVITHTGASGNNFVECT

Variants of: B1
Conditions: Aspergillus oryzae (strain ATCC 42149 / RIB 40); pH 5; 25 °C; GdnHCl; Fluorescence; Sodium acetate 0.1 M; reversible: yes; structure 1RN1; whole UniProt chain shown

Variant | ddG of mutation (higher = less stable) | denaturant m value | denaturant midpoint (higher = more stable) | unfolding free energy
P65A | 5.12 kcal/mol | 2.63 kcal/mol/M | 1.71 M | 4.88 kcal/mol

Same assay, conditions: Aspergillus oryzae (strain ATCC 42149 / RIB 40); pH 8; 10 °C; GdnHCl; Fluorescence; Tris 0.1 M; reversible: yes; structure 1RN1; whole UniProt chain shown

Variant | ddG of mutation (higher = less stable) | denaturant m value | denaturant midpoint (higher = more stable) | unfolding free energy
P65A | 4.33 kcal/mol | 2.87 kcal/mol/M | 1.43 M | 4.11 kcal/mol

Reference: FireProtDB (doi:10.1006/jmbi.1993.1336)
